Here are results for one molecule from publication PMC2674214 (PLoS ONE, 2009).

The test concerns the target rHA of clade 1 H5N1 virus A/Viet Nam/1203/04 (Influenza A virus A/Viet Nam/1203/2004 …, UniProt Q5EP31, strain). Briefly: ELISA.

B1: AVFluIgG03 (antibody, V domains shown)
VH: LESGGGLVQPGGSLRVSCTNSGFTFSDYAMSWVRQAPGKGLEWVSAISGNGGSSTYYADSVKGRFTISRDNSKNTMYLQMNSLRAEDTAVYYCVRDDSYDGGGQYGLHNWFDSWGQGTLVTV
VL: ELTQPPSVSGAPGQRVTISCTGSSSNIGAGYDVHWYQQLPGTAPKLLIYGNSNRPSGVPDRFSGSKSGTSASLAITGLQAEDEADYYCQSYDSSLVVFGGGTKLTVL
notes: also called rhAb AVFluIgG03; AVFluIg03; source: SF9 cells, purified on a Protein A column
B1: the binding result is given as “no binding”.
